Four molecules from paper PMC6377645, “Structural insights into chaperone addiction of toxin-antitoxin systems” (Nature Communications, 2019) can be followed below.

“And” between values parts separate entries of the source, which are not always exact repeats. Equal values may be shown once.

Sequences and labels used below:
B1: Mtb-SecB^TA chaperone (Rv1957), His6-tag removed (natural protein)
chain: MTDRTDADDLDLQRVGARLAARAQIRDIRLLRTQAAVHRAPKPAQGLTYDLEFEPAVDADPATISAFVVRISCHLRIQNQAADDDVKEGDTKDETQDVATADFEFAALFDYHLQEGEDDPTEEELTAYAATTGRFALYPYIREYVYDLTGRLALPPLTLEILSRPMPVSPGAQWPATRGTP
notes: SecB-like chaperone Mtb-SecB^TA (Rv1957) of Mycobacterium tuberculosis, 181 amino acids; untagged mass printed as 20,388 Da; Residues of the pET15b vector may remain after thrombin cleavage (surmised from the printed mass); For MST the protein was labelled with the dye NT-647; also called SecB-like chaperone; TA-associated SecB chaperone; not shown: His6, N-terminal, cleaved
B3: ChAD peptide, Mtb-HigA1(104-116) (peptide)
peptide: EVPTWHRLSSYRG
notes: residues 104-116 of the antitoxin Mtb-HigA1 of Mycobacterium tuberculosis (chaperone addiction region); also called C4; 13-mer ChAD peptide

Data set [1] deals with B3. Briefly: ITC; reverse conditions (protocol of the reverse titration not described); 12 °C; 20 mM MES, 200 mM NaCl, pH 6.5. The following applies: both partners purified. (Isothermal titration calorimetry measures the heat released or taken up as one component is titrated into another.)
Data set [2] deals with the molecule itself. As to the kind of experiment: SEC-MALS; Superdex 200 Increase 5/150; 20 mM MES, 200 mM NaCl, pH 6.5; 15 °C; Mtb-SecB^TA 49.1 µM, Mtb-SecB^TA/HigA1 6.5 µM, Mtb-HigA1^ΔC42 100 µM. For orientation: SEC sorts molecules by how far they enter the pores of the column.
The data set “SEC-MALS” concerns the molecule itself. As to the kind of experiment: SEC-MALS.
Data set [3] has as its target B1. As to the kind of experiment: MST; 100 nM NT-647-labelled Mtb-SecB^TA with 3 nM to 100 µM ChAD peptide; 20 mM MES, 200 mM NaCl, 0.025% Tween 20, pH 6.5; 22 °C. To be noted: both partners purified.
Data set [4] deals with B1. As to the kind of experiment: ITC; ChAD peptide (80-620 µM) injected into Mtb-SecB^TA (18-48 µM) in the cell; 12 °C; 20 mM MES, 200 mM NaCl, pH 6.5; one set of sites; Kd and enthalpy printed once for direct and reverse conditions. To be noted: both partners purified.
Data set [5] addresses B1. Briefly: native MS; Mtb-SecB^TA 11.8 µM (tetramer) in 200 mM ammonium acetate pH 7, titrated with ChAD peptide at molar ratios 0 to 20 per tetramer; control peptides C2, C3, C7 at 8 peptides per tetramer; Kd fitted with UniDec, 4 sites, all KD's free. To be noted: both partners purified.
In data set [6] the target is B1. Briefly: native MS; Mtb-SecB^TA/HigA1 9.7 µM (hexamer) in 200 mM ammonium acetate pH 7, with 0 to 16 ChAD peptide molecules per hexamer. To be noted: both partners purified.
In data set [7] the target is B1. As to the kind of experiment: SEC-MALS; Superdex 200 Increase 5/150; 20 mM MES, 200 mM NaCl, pH 6.5; 15 °C; Mtb-SecB^TA 49.1 µM, Mtb-SecB^TA/HigA1 6.5 µM, Mtb-HigA1^ΔC42 100 µM. To be noted: both partners purified.

A word on the stoichiometry N: it is the number of molecules, sites or subunits per partner or assembly. Take B1: the entries for the “stoichiometry N” value in data set [1] and in data set [2] were 2.2 and 4, respectively.

B2: Mtb-SecB^TA with a N-terminal His6-tag (before thrombin cleavage) (natural protein)
chain: MTDRTDADDLDLQRVGARLAARAQIRDIRLLRTQAAVHRAPKPAQGLTYDLEFEPAVDADPATISAFVVRISCHLRIQNQAADDDVKEGDTKDETQDVATADFEFAALFDYHLQEGEDDPTEEELTAYAATTGRFALYPYIREYVYDLTGRLALPPLTLEILSRPMPVSPGAQWPATRGTP
notes: SecB-like chaperone Mtb-SecB^TA (Rv1957) of Mycobacterium tuberculosis, 181 amino acids; also called His6-Mtb-SecB^TA; not shown: His6, N-terminal, kept
Take B2: the “stoichiometry N” value in the data set “SEC-MALS” is 8 and 4.
What is called Kd is the constant that tells how readily two partners part at equilibrium. A lower Kd goes with a tighter complex. As for B3, the dissociation constant (Kd) in data set [3] was 2.6 ± 0.6 µM. In data set [4], binding was put at a Kd of 1.9 ± 0.2 µM, the dH is -12 kcal/mol and the “stoichiometry N” value turned out to be 0.47. Besides, in data set [5], the “Kd of the single binding events (four sites fitted, all KD's free)” value is 6 to 17 µM and the “stoichiometry N” value is at most 4 peptides per tetramer.

B4: Mtb-HigA1 antitoxin, full length, untagged (natural protein)
chain: MSIDFPLGDDLAGYIAEAIAADPSFKGTLEDAEEARRLVDALIALRKHCQLSQVEVAKRMGVRQPTVSGFEKEPSDPKLSTLQRYARALDARLRLVLEVPTLREVPTWHRLSSYRGSARDHQVRVGADKEILMQTNWARHISVRQVEVA
notes: antitoxin HigA1 of the TAC system of Mycobacterium tuberculosis, untagged; Obtained only in complex with Mtb-SecB^TA (4:2 hetero-hexamer); also called TAC antitoxin
Turning to B4, the “stoichiometry N” value in data set [6] is 0.5 HigA1 chains per SecB^TA chain (printed as 4:2 Mtb-SecB^TA/HigA1); in data set [7], 0.5 HigA1 chains per SecB^TA chain (printed as 4:2 chaperone/antitoxin); in data set [2], 2.
